{"source": "patent EP4552657A1", "about": "“RADIOPHARMACEUTICAL COMPLEXES AND COMBINATIONS” (priority 2023, dated 2025)", "key": {"[1]": {"tested_on": "GPC3 low-expressing hepatoma xenograft model Huh-7", "settings": "168h; 500 kBq/kg IV, 0,75 mg/kg total protein", "method": "Female RJ: NRMI-Foxn1nu/nu mice were inoculated with 2 × 10^6 Huh-7 cells on the right flank. Animals were pre-treated with 200 µg/mouse unspecific IgG2a antibody 24 h prior to hot dosing."}, "[2]": {"tested_on": "Huh-7 hepatoma expressing GPC3", "experiment": "In vivo efficacy in Huh-7 xenograft", "design": "species or system Mice", "excerpt": "• Figure 1. […] Size-exclusion UV chromatogram of Codrituzumab-macropa. • Figure 9. […] Size-exclusion UV chromatogram of Labetuzumab-macropa. • Figure 18. […] Internalization of Labetuzumab. […] Size-exclusion UV chromatogram of Sacituzumab-macropa. • Figure 25. […] Size-exclusion UV chromatogram of Indusatumab-macropa. • Figure 30. […] Size-exclusion UV chromatogram of Telisotuzumab-macropa. • Figure 36."}, "[3]": {"tested_on": "HepG2 and Hep3B2.1-7 cells", "settings": "2 MBq/mg, 5 kBq/ml; 6 days; vs radiolabeled isotype control", "description": "Cells were seeded at an appropriate cell density in relevant cell media. One day after seeding, the radiolabeled compounds at the specific activity of 2-20 kBq/µg and radioactive concentration of 50-100 kBq/ml were titrated in parallel with a radiolabeled isotype control. Cells were incubated for 5-6 days. Cell viability was determined by cell counting using Hoechst and PI staining and analyzed on Operetta CLS High Content Analysis System (Perkin Elmer) or by ATP measurements using CellTiterGlo (Promega).\nHepG2 and Hep3B2.1-7 cells were seeded at an appropriate cell density in the cell media MEM + 10% FBS. HepG2 cells have higher GPC3 expression on the cell surface than Hep3B2.1-7 cells. One day after seeding the compounds at the specific activity of 2 MBq/mg and radioactive concentration of 5 kBq/ml were titrated in parallel with a radiolabeled isotype control. Cells were incubated for 6 days and subsequentially cell viability was determined using Hoechst and PI staining and analyzed on Operetta CLS High Content Analysis System (Perkin Elmer)."}, "CEACAM5 [4]": {"molecular_target": "T1, CEACAM5 (Homo sapiens, UniProt P06731)", "T1 sequence (P06731 35-702)": "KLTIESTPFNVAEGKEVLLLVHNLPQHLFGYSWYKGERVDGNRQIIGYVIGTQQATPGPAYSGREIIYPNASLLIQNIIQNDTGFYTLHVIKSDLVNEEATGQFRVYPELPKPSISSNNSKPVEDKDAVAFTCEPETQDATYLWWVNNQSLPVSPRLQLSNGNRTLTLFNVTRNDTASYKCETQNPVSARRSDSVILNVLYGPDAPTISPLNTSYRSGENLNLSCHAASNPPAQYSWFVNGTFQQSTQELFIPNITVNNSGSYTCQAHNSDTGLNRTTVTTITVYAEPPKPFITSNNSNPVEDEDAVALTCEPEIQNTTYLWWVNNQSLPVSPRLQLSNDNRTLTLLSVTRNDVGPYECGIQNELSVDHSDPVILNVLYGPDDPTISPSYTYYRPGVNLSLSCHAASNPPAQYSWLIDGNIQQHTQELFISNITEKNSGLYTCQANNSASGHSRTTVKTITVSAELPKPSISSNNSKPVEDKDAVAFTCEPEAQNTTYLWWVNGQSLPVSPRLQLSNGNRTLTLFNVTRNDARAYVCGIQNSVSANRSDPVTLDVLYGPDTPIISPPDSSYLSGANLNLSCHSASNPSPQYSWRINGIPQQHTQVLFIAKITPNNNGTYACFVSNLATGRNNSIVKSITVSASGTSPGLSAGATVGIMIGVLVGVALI", "experiment": "Immunoreactive fraction (IRF), binding to CEACAM5-coated beads", "settings": "2 kBq/µg", "method": "Shortly after completion of the radiolabeling, the binding was assessed by measuring the fraction of radiolabeled antibody-chelator conjugate bound to relevant antigen coated magnetic beads (Thermo Fisher Scientific). In short, beads were placed in 2 mL Eppendorf tubes in 90 µL buffer (PBS/0.1% Tween 20/1% BSA). The radiolabeled compounds were diluted to 5 Bq/µL in buffer and 50 Bq were added to each bead-containing tube. The binding lasted for 60 min while shaking at 750 rpm at room temperature. After completion of the binding step, magnet (DynaMag-2) was used to separate the beads from […] supernatant. The radio activities in the supernatant and in the beads of each sample were measured using a high purity Germanium detector (Ortec). […] Total binding was defined as [(activity in beads […])/ (total activity)] × 100.\nShortly after completion of the radiolabeling, the binding of each sample to CEACAM5-coated M270-carboxy Dynabeads was determined."}, "LK-2 lung cancer model": {"tested_on": "LK-2 lung cancer model", "experiment": "In vivo antitumor efficacy in LK-2 model", "design": "species or system mice", "excerpt": "Female BALB/c nude mice were inoculated subcutaneously with 1×10^6 LK-2 cells. When tumors reached an average size of ~190mm^3, animals were randomized into treatment groups (n=12 per group) and treatment was started.\n(**, P=0.0024. ****, […]) (Figure 28)."}, "[5]": {"tested_on": "C4-2, JIMT-1, T-47D, NCI-N87 and Calu-3", "settings": "2 to 40 kBq/µg; 6 days; vs isotype control", "description": "In vitro cytotoxicity of Ac-225-ACC was determined in cell lines expressing different levels of relevant target receptors. Cells were seeded at an appropriate cell density in relevant cell media. One day after seeding, the radiolabeled compounds at the specific activity of 2-20 kBq/µg and radioactive concentration of 50-100 kBq/ml were titrated in parallel with a radiolabeled isotype control. Cells were incubated for 5-6 days. Cell viability was determined by cell counting using Hoechst and PI staining and analyzed on Operetta CLS High Content Analysis System (Perkin Elmer) or by ATP measurements using CellTiterGlo (Promega).\nC4-2, JIMT-1, T-47D, NCI-N87 and Calu-3 were seeded at an appropriate cell density in the following cell media respectively: RPMI + 10% FBS + 1x MEM-NEAA + 1x HEPES + 1x Na Pyruvate; DMEM + 10% FBS; RPMI + 10% FBS + 10 µg/ml insulin; RPMI + 10% FBS; RPMI + 10% FBS. […] Cells were treated for 6 days and subsequentially cell viability was determined using CellTiterGlo (Promega)."}, "human glypican-3 [6]": {"molecular_target": "T2, human glypican-3 (Homo sapiens, UniProt P51654)", "experiment": "ELISA, binding to recombinant human glypican-3", "settings": "compared to unconjugated Codrituzumab", "method": "The relevant antigen was immobilized on ELISA plate by absorption. The plate was washed (PBS with 0.1% Tween 20) and incubated with blocking buffer (PBS + 3% BSA) for 2 h ± 1 h to reduce unspecific binding. Relevant antibodies and ACCs diluted in assay buffer (PBS with 0.05% Tween 20 + 1.5% BSA). The blocking buffer was discarded, and the antibodies and ACCs and controls were applied in triplicates to the plate according to a plate set-up defined in each protocol. After incubation for 1 h ± 30 min at RT, the plate was washed. A horse radish peroxidase (HRP)-conjugated secondary antibody binding specifically to the primary mAb (anti-human IgG-HRP) was added to the plate. After incubation for 1 hour ± 30 min at RT, the plate was washed. A chromogenic substrate (2,2'-azino-bis (3-ethylbenzothiazoline-6-sulphonic acid) (ABTS)), for HRP leading to the formation of a green color was added to the plate and used for detection. The absorbance of the colored reaction product was measured with an absorbance plate reader, e.g. EnVision 2103 Multilabel Reader from Perkin Elmer, or iMark Microplate Absorbance Reader from Bio-Rad.\nAbsorbance against the log of the antibody concentration was plotted on the GraphPad Prism software. […]"}, "human glypican-3 [7]": {"molecular_target": "T2, human glypican-3", "experiment": "Flow cytometry, cell surface binding on Hep3B2 cells", "design": "Hep3B2 cells expressing human glypican-3; endogenous in cells; host or cells: Hep3B2", "settings": "compared to unconjugated Codrituzumab", "method": "(§1) The in vitro binding properties of antibody-chelator conjugates were assessed in various relevant cell lines and compared to their corresponding unconjugated antibody. Briefly, samples were diluted in buffer (PBS/3% FBS) and added to relevant cell lines. After completion of the binding step (60 min at 4°C), the cells were washed and incubated with secondary antibody conjugated with phycoerythrin to detect antibodies containing a human IgG Fc region. After 60 min at 4°C, the cells were washed, and fluorescence on the cells was determined by flow cytometry using Guava EasyCyte 8HT (Luminex).\nCell surface binding of Codrituzumab-macropa was compared to unconjugated Codrituzumab and was investigated by flow cytometry using Hep3B2 cells expressing human glypican-3 (Figure 11)."}, "human FolRa": {"molecular_target": "T3, human FolRa (Homo sapiens, UniProt P15328)", "T3 construct": "OUMS-23 and T-47D cells expressing human FolRa; endogenous in cells; host or cells: OUMS-23, T-47D", "T3 sequence (P15328 25-257)": "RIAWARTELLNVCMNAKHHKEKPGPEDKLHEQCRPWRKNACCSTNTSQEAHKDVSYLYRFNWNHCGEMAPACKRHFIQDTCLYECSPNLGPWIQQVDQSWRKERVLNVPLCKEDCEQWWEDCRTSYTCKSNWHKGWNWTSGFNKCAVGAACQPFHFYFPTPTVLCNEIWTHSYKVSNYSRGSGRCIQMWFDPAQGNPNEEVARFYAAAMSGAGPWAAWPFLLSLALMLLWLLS", "experiment": "Flow cytometry, cell surface binding on OUMS-23 and T-47D cells", "settings": "compared to the unconjugated antibody", "method": "as §1\nCell surface binding of Farletuzumab-macropa and Farletuzumab-DOTA was compared to unconjugated Farletuzumab and investigated by flow cytometry using OUMS-23 and T-47D cells expressing human FolRa (Figure 43).\nCell surface binding of Mirvetuximab-macropa and Mirvetuximab-DOTA was compared to unconjugated Mirvetuximab and investigated by flow cytometry using OUMS-23 and T-47D cells expressing human FolRa (Figure 47)."}, "GUCY2C": {"molecular_target": "GUCY2C (Homo sapiens, UniProt P25092)", "experiment": "Flow cytometry, cell surface binding on CHO-GUCY2C cells", "design": "expressed in transfected cells; host or cells: CHO", "settings": "compared to unconjugated Indusatumab", "method": "as §1\nCell surface binding of Indusatumab-macropa was compared to unconjugated Indusatumab and investigated by flow cytometry using CHO-GUCY2C cells expressing human GUCY2C (Figure 31)."}, "CEACAM5 [8]": {"molecular_target": "T1, CEACAM5", "experiment": "Flow cytometry, cell surface binding on MKN-45 and HT-55 cells", "design": "MKN-45 and HT-55 cells expressing human CEACAM5; endogenous in cells; host or cells: MKN-45, HT-55", "settings": "compared to unconjugated Labetuzumab", "method": "as §1\nCell surface binding of Labetuzumab-macropa was compared to unconjugated Labetuzumab and investigated by flow cytometry using MKN-45 and HT-55 cells expressing human CEACAM5 (Figure 19)."}, "[9]": {"experiment": "Chelation of bismuth-213 by iTLC after Ac-225 labelling", "assay_type": "physicochemical", "settings": "measured immediately and on Day 1 and Day 2 at room temperature", "method": "In brief, an iTLC paper impregnated with a silica gel plate was cut to obtain 11 cm × 1 cm strips. Application point (1 cm), cut point (4 cm) and end of run point (10 cm) was marked and 2 µl of TAC was applied on to iTLC strips. The strips were developed in 3 mL mobile phase (0.1 M Citrate in 0.9%(v/v) NaCl pH 5.5) in LSC vials. […] When the liquid front had reached the marked end point, the strips were removed from the vials and placed on an aluminum foil to dry. The strips were cut in two at 4 cm: the shorter \"application\" half (A) and the longer \"front\" half (F). Each part was carefully folded and placed at the bottom of scintillation vials. […] The radiochemical purity (% RCP) of the samples (defined as [(radioactivity of application section)/(total radioactivity on strip)] × 100) was calculated. Table 2: Radiochemical purity (% RCP) of samples included in this invention.\nPelgi-macropa labeling was performed for 60 min at room temperature the two DOTA compounds were labeled at 60°C for 60 min. The percentage chelation of Bi-213 was determined using iTLC and measured on the Germanium Detector using the specific energy of Bi-213. After initial radiolabelling, compounds were measured immediately and on Day 1 and Day 2 after incubation at room temperature. […]"}, "human TROP2": {"molecular_target": "T4, human TROP2 (Homo sapiens, UniProt P09758)", "T4 construct": "JIMT-1, MCF-7, T-47D and ZR-75-1 cells expressing human TROP2; endogenous in cells; host or cells: JIMT-1, MCF-7, T-47D, ZR-75-1", "T4 sequence (P09758 27-323)": "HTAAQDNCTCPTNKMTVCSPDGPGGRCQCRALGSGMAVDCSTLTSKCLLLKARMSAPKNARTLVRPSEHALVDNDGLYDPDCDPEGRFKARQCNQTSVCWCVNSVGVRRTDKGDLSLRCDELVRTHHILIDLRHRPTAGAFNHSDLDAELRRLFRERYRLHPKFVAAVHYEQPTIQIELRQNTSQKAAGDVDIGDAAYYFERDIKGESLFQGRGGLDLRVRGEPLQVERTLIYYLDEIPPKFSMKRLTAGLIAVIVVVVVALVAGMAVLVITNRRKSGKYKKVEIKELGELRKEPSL", "experiment": "Flow cytometry, cell surface binding on JIMT-1, MCF-7, T-47D and ZR-75-1 cells", "settings": "compared to unconjugated Sacituzumab", "method": "as §1"}}, "data": [{"substance": "Ac-225-macropa-Codrituzumab: Ac-225 macropa complex bound to the anti-GPC3 monoclonal antibody Codrituzumab", "values": [{"measurement": "tumor uptake", "setting": "[1]", "value": "significantly higher tumor uptake at 168h compared to Ac-225-macropa-isotype-control"}, {"measurement": "anti-tumor activity", "setting": "[2]; 500 kBq/kg single dose IV, repeat dose 250 kBq/kg on day 25, compared to isotype control", "value": "significantly higher anti-tumor activity"}, {"measurement": "body weight loss", "setting": "[2]; during the course of the study", "value": "No body weight loss"}, {"measurement": "cytotoxicity", "setting": "[3]", "value": "strong and specific cytotoxicity"}]}, {"substance": "Ac-225-macropa-Labetuzumab", "values": [{"measurement": "IRF", "setting": "CEACAM5 [4]; 33 µg beads", "value": 43, "unit": "%"}, {"measurement": "IRF", "setting": "CEACAM5 [4]; 100 µg beads", "value": 88, "unit": "%"}, {"measurement": "IRF", "setting": "CEACAM5 [4]; 333 µg beads", "value": 97, "unit": "%"}]}, {"substance": "Ac-225-macropa-Sacituzumab: Ac-225 macropa complex bound to the anti-TROP2 monoclonal antibody Sacituzumab", "values": [{"measurement": "tumor growth inhibition", "setting": "LK-2 lung cancer model; 100 or 200 kBq/kg, i.v., single dose day 0", "value": "strong tumor growth inhibition at both doses tested"}, {"measurement": "Antitumor activity compared to Trodelvy", "setting": "LK-2 lung cancer model; Trodelvy 20 mg/kg i.v. day 0,7,14", "value": "significantly improved as compared to Trodelvy"}, {"measurement": "cytotoxicity", "setting": "[5]", "value": "strong and specific cytotoxicity"}]}, {"substance": "Codrituzumab-DOTA", "values": [{"measurement": "EC50", "setting": "human glypican-3 [6]", "value": "higher EC50 than unconjugated Codrituzumab"}]}, {"substance": "Codrituzumab-macropa", "values": [{"measurement": "EC50", "setting": "human glypican-3 [7]", "value": "comparable EC50 as unconjugated Codrituzumab"}]}, {"substance": "Farletuzumab-DOTA [reference compound]", "values": [{"measurement": "EC50", "setting": "human FolRa", "value": "higher EC50 than unconjugated Farletuzumab in both cell lines"}]}, {"substance": "Farletuzumab-macropa", "values": [{"measurement": "EC50", "setting": "human FolRa", "value": "comparable EC50 in both cell lines as unconjugated Farletuzumab"}]}, {"substance": "Indusatumab-macropa", "values": [{"measurement": "EC50", "setting": "GUCY2C", "value": "comparable EC50 as unconjugated Indusatumab"}]}, {"substance": "Labetuzumab-macropa", "values": [{"measurement": "EC50", "setting": "CEACAM5 [8]", "value": "comparable EC50 as unconjugated Labetuzumab"}]}, {"substance": "Mirvetuximab-DOTA [reference compound]", "values": [{"measurement": "EC50", "setting": "human FolRa", "value": "higher EC50 than unconjugated Mirvetuximab in OUMS-23 cells"}]}, {"substance": "Mirvetuximab-macropa", "values": [{"measurement": "EC50", "setting": "human FolRa", "value": "comparable EC50 in both cell lines as unconjugated Mirvetuximab"}]}, {"substance": "Pelgi-macropa: actinium-225 complexed to a macropa chelator covalently linked to the fully human PSMA-targeting antibody pelgifatamab (CAR 0.8)", "values": [{"measurement": "chelation of Bismuth-213", "setting": "[9]", "value": "chelated by macropa"}]}, {"substance": "Sacituzumab-macropa", "values": [{"measurement": "EC50", "setting": "human TROP2", "value": "comparable EC50 as unconjugated Sacituzumab"}]}, {"substance": "pelgifatamab-DOTA: pelgifatamab-DOTA (CAR 12.7) labeled with Actinium-225", "values": [{"measurement": "chelation of Bismuth-213", "setting": "[9]", "value": "not chelated to the same extent with DOTA"}]}]}
